Measurements taken from the Immune Epitope Database (IEDB).
pKd: −log10 of the molar value.

Key:
Test in all cases: IEDB peptide-MHC binding, purified MHC/competitive/radioactivity; filed as Kd, often an IC50 or EC50 that approximates it; ≥ and ≤ were set here for values at or beyond the usual limits of such assays
HLA-A*02:02 = target: HLA-A*02:02
HLA-A*02:03 = target: HLA-A*02:03
HLA-A*02:06 = target: HLA-A*02:06
HLA-A*03:01 = target: HLA-A*03:01
HLA-A*11:01 = target: HLA-A*11:01
HLA-A*31:01 = target: HLA-A*31:01
HLA-A*33:01 = target: HLA-A*33:01
HLA-A*68:01 = target: HLA-A*68:01
[1] = source organism: Vaccinia virus WR
[2] = source organism: Dengue virus 2 Jamaica/1409/1983
[3] = source organism: SARS coronavirus Tor2
[4] = source organism: Lymphocytic choriomeningitis virus (strain WE)
[5] = source organism: Mammarenavirus whitewaterense
[6] = source organism: Mammarenavirus brazilense
[7] = source organism: Mammarenavirus juninense
[8] = source organism: Vaccinia virus Copenhagen

Row | Sequence | pKd (HLA-A*02:02; [1]) | pKd (HLA-A*02:03; [1]) | pKd (HLA-A*02:06; [1]) | other results
1 | AIDRQVSVKL | 5.10 | 4.88 | ≤ 4.49 | 
2 | ALGMMVLKIV |  |  |  | pKd (HLA-A*02:03; [2]): 7.25
3 | ALLFLMSFT |  |  |  | pKd (HLA-A*02:02; [3]): 5.55; pKd (HLA-A*02:03; [3]): 5.70; pKd (HLA-A*02:06; [3]): 6.89
4 | ALLSCIRNA | 6.92 | 8.21 | 7.11 | 
5 | ALYSPPLISI | 8.85 | 6.82 | 6.79 | 
6 | ATQFNFNGHT | ≤ 4.54 | 4.94 | ≤ 4.58 | 
7 | CQCTVQEFI | 5.69 | 5.32 | 5.95 | 
8 | CTEETKRNIA | ≤ 4.15 | ≤ 4.30 | ≤ 4.16 | 
9 | CVDHPFIYV | 6.52 | 5.85 | 6.83 | 
10 | DLLFNEKLKV | 6.45 | 6.50 | 5.69 | 
11 | DLLNVTYNI | 6.53 | 6.71 | 5.89 | 
12 | DVERLQMAGV | 6.67 | 6.98 | 6.11 | 
13 | DVSVSVGTGI | 4.75 | 5.23 | ≤ 4.66 | 
14 | EMKYALINL | 5.51 | 7.20 | ≤ 4.11 | 
15 | FIVYGRSNA | 5.22 | 6.43 | 5.06 | 
16 | FLPQIGGEAI | 9.00 | 7.87 | 8.00 | 
17 | FQPHQLWTT |  |  |  | pKd (HLA-A*02:06; source organism: Dengue virus 1 Brazil/97-11/1997): 8.22
18 | FSTSAYLISI |  |  |  | pKd (HLA-A*02:02; [4]): 9.17; pKd (HLA-A*02:03; [4]): 7.87; pKd (HLA-A*02:06; [4]): 8.46
19 | GAAITLVVI | 5.19 | 5.48 | 5.53 | 
20 | GARVIWMDA | 5.34 | 5.04 | 5.67 | 
21 | GIKNLKSLL | 5.67 | 5.58 | ≤ 4.21 | 
22 | GLIVILFIM | 4.87 | 5.86 | 5.28 | 
23 | GLMILLTGGA |  |  |  | pKd (HLA-A*02:03; source organism: Dengue virus 3 Martinique/1243/1999): 7.64
24 | GLSASDVDM | 6.30 | 5.45 | 4.86 | 
25 | GLVDVCFWS |  |  |  | pKd (HLA-A*02:02; [5]): 6.94; pKd (HLA-A*02:03; [5]): 5.97; pKd (HLA-A*02:06; [5]): 6.27
26 | GQIDNFSLGV |  |  |  | pKd (HLA-A*02:06; [2]): 8.25
27 | GTKGKLYIA | 5.76 | 7.25 | 5.60 | 

Row | Sequence | pKd (HLA-A*02:02; [1]) | pKd (HLA-A*02:03; [1]) | pKd (HLA-A*02:06; [1]) | other results
28 | GTKGKLYIAL | 5.04 | 5.11 | ≤ 4.43 | 
29 | IADIRDKYM | 7.20 | 6.64 | ≤ 4.24 | 
30 | IAIFNNRNL | 5.03 | 4.98 | 4.87 | 
31 | ICFWSTLFFT |  |  |  | pKd (HLA-A*02:02; [6]): ≤ 4.48; pKd (HLA-A*02:03; [6]): ≤ 4.45; pKd (HLA-A*02:06; [6]): ≤ 4.46
32 | IISLFYTFAI | 6.97 | 7.36 | 6.84 | 
33 | ILATLNTLI | 9.38 | 9.64 | 7.39 | 
34 | ILAVVSVSPL |  |  |  | pKd (HLA-A*02:03; source organism: Dengue virus 2 16681-PDK53): 7.40
35 | IMETIDPVYI | 7.54 | 6.62 | 6.46 | 
36 | ITLILSNKLL | 5.96 | 5.33 | 5.41 | 
37 | IVSLCPTKKL | 8.02 | 7.53 | ≤ 4.55 | 
38 | KIVQLPKRGV | 5.39 | 7.29 | 5.65 | 
39 | KLKSMEAEMI |  |  |  | pKd (HLA-A*02:06; source organism: Homo sapiens): 5.11
40 | KLLIVLTCI |  |  |  | pKd (HLA-A*02:02; [3]): 6.59; pKd (HLA-A*02:03; [3]): 5.71; pKd (HLA-A*02:06; [3]): 6.35
41 | KLVETGFVI | 4.88 | 5.97 | 6.70 | 
42 | KVEKYLPEV | 5.98 | 6.77 | 6.94 | 
43 | KVIKLVKSL | 6.24 | 7.37 | 6.59 | 
44 | KVSCTILAAV |  |  |  | pKd (HLA-A*02:03; [2]): 7.26; pKd (HLA-A*02:06; [2]): 7.90
45 | KVYLSTFNM | 6.32 | 6.10 | 6.58 | 
46 | LNISGYNYSL |  |  |  | pKd (HLA-A*02:02; [6]): 7.11; pKd (HLA-A*02:03; [6]): ≤ 4.31; pKd (HLA-A*02:06; [6]): 5.96
47 | LVAEHRFENM | 5.69 | 6.34 | 6.14 | 
48 | LVFLWLLWPV |  |  |  | pKd (HLA-A*02:02; [3]): 9.03; pKd (HLA-A*02:03; [3]): 8.71; pKd (HLA-A*02:06; [3]): 9.25
49 | MIIGEPIIVA | 7.38 | 6.95 | 6.91 | 
50 | RNPYENLLYK |  |  |  | pKd (HLA-A*03:01; [7]): 5.61; pKd (HLA-A*11:01; [7]): 6.20; pKd (HLA-A*31:01; [7]): 5.32; pKd (HLA-A*33:01; [7]): ≤ 4.44; pKd (HLA-A*68:01; [7]): 4.90
51 | RQILDNAAK |  |  |  | pKd (HLA-A*03:01; [1]): 6.93; pKd (HLA-A*11:01; [1]): 6.84; pKd (HLA-A*31:01; [1]): 5.95; pKd (HLA-A*33:01; [1]): ≤ 4.11; pKd (HLA-A*68:01; [1]): ≤ 4.45
52 | RQLFKPLTK |  |  |  | pKd (HLA-A*03:01; [3]): 7.04; pKd (HLA-A*11:01; [3]): 6.18; pKd (HLA-A*31:01; [3]): 5.62; pKd (HLA-A*33:01; [3]): ≤ 4.11; pKd (HLA-A*68:01; [3]): ≤ 4.11
53 | RVIWMDAYK |  |  |  | pKd (HLA-A*03:01; [8]): 8.39; pKd (HLA-A*11:01; [8]): 9.10; pKd (HLA-A*31:01; [8]): 8.98; pKd (HLA-A*33:01; [8]): 5.32; pKd (HLA-A*68:01; [8]): 9.08
